Reference: article PMC9879991, “Biomolecular condensates formed by designer minimalistic peptides” (Nature Communications, 2023)
No end group written: not given here.

Experiments:
[1] = solution NMR, Trp1-Hα and Trp1-Hβ shifts at pH 6.0, 7.0, 7.5, 8.0, 9.0, Henderson-Hasselbach fit; error by Monte Carlo
Protocol: pKa values were determined by following the chemical shifts of Trp1-Hα and Trp1-Hβ at pH values of 6.0, 7.0, 7.5, 8.0 and
9.0. The 10 obtained chemical shifts were fitted to the Henderson-Hasselbach equation with the assumption that peak
position is a weighted average of the two end-point chemical shifts; optimization parameters were the two end-point shifts
(representing fully ionized and fully deionized forms of the N-terminal amino group of the peptide. Errors were determined
by Monte Carlo simulations with a measurement error of 0.01 ppm for all chemical shifts.

[2] = target: Nterm1 (position 1, -----WGRGRG); test: NMR; conditions: 300 K (general NMR methods statement; not restated for the titration), NaCl 0-0.2 M used in NMR samples, concentration for the pKa titration not given, 20 mM Tris (NMR methods), Free peptide in solution, disordered

**Q.** With WGRGRGRGWPGVGF [WGR-3] as the molecule, how does the “pKa of the N-terminal amine group” value [1] read?
**A.** Its value is 7.49 ± 0.01.

**Q.** With WGRGRGRGWY [WGR-4] as the molecule, how does the “pKa of the N-terminal amine group” value [1] read?
**A.** The value was 7.37 ± 0.01.

**Q.** For WGRGRGWPGVGY [WGR-5], which “pKa of the N-terminal amine group” value [1] is on record?
**A.** The value was 7.51 ± 0.01.

**Q.** With WGRGRGRGWY [WGR-4 designer LLPS peptide (WGR-1 without the ELP motif) (synthetic construct; del10-13)] as the molecule, how does the pKa [2] read?
**A.** The pKa was 7.37 ± 0.01.

**Q.** Which pKa [2] does the source give for WGRGRGRGWPGVGF [WGR-3 designer LLPS peptide (Tyr14 to Phe variant of WGR-1) (synthetic construct; Y14F)] here?
**A.** Its pKa is 7.49 ± 0.01.

**Q.** For WGRGRGRGWPGVGY [WGR-1 designer LLPS peptide (synthetic construct)], which pKa [2] is on record?
**A.** Its pKa is 7.50 ± 0.01.

**Q.** With WGRGRGWPGVGY as the molecule, how does the pKa [2] read?
**A.** Its pKa is 7.51 ± 0.01.
